From paper PMC7460673, “Biochemical Characterization and Crystal Structure of a Novel NAD^+-Dependent Isocitrate Dehydrogenase from Phaeodactylum tricornutum” (International Journal of Molecular Sciences, 2020)
Several values for one entry are separate records, joined by “and”; a condition that tells them apart may be missing. Equal entries are not always repeated.

Columns and labels:
PtIDH1 [1] = target: T1, PtIDH1 (Phaeodactylum tricornutum, UniProt B7G620); experiment: spectrophotometric NADH formation at […] nm; type: biochemical; conditions: read-out: Relative Activity (%) / PtIDH1
T1 construct: gene IDH1; hexamer also seen; C-terminal EF-hand domain

PtIDH1 [2] = target: T1, PtIDH1; experiment: spectrophotometric NADH formation at […] nm; type: biochemical
[3] = target: Phaeodactylum tricornutum isocitrate dehydrogenase 1, mature (without mitochondrial-targeting peptide) (Phaeodactylum tricornutum); experiment: SEC; Superdex 200 10/300 column calibrated with five standard proteins, 0.5 mL/min; 20 mM Tris, 300 mM NaCl, 5% glycerol, pH 7.5
purified protein [4] = substrate: O=C(O)CC(C(=O)O)C(O)C(=O)O; experiment: purified protein; type: biochemical, Phaeodactylum tricornutum; conditions: 2 mM Mn2+, NAD+, 50 mM Tris pH 8.0, 25 °C, varied as DL-isocitrate, cooperative, nH 1.43
purified protein [5] = substrate: NC(=O)c1ccc[n+]([C@@H]2O[C@H](COP(=O)([O-])OP(=O)(O)OC[C@H]3O[C@@H](n4cnc5c(N)ncnc54)[C@H](O)[C@@H]3O)[C@@H](O)[C@H]2O)c1; experiment: purified protein; type: biochemical, Phaeodactylum tricornutum; conditions: 2 mM Mn2+, DL-isocitrate, 50 mM Tris pH 8.0, 25 °C, varied: cofactor

Nc1ncnc2c1ncn2[C@@H]1O[C@H](COP(=O)(O)OP(=O)(O)O)[C@@H](O)[C@H]1O [ADP]
activity at 1000 µM (PtIDH1 [1]): 86.63 ± 0.2%

Nc1ncnc2c1ncn2[C@@H]1O[C@H](COP(=O)(O)OP(=O)(O)OP(=O)(O)O)[C@@H](O)[C@H]1O [ATP]
activity at 1000 µM (PtIDH1 [1]): 88.7 ± 0.8%

NC(=O)C1=CN([C@@H]2O[C@H](COP(=O)(O)OP(=O)(O)OC[C@H]3O[C@@H](n4cnc5c(N)ncnc54)[C@H](O)[C@@H]3O)[C@@H](O)[C@H]2O)C=CC1 [NADH]
Ki (PtIDH1 [2]): 450 ± 80 µM

Phaeodactylum tricornutum isocitrate dehydrogenase 1, mature (without mitochondrial-targeting peptide) (enzyme)
stoichiometry N [3]: 2 and 6

B1: PtIDH1 (Phaeodactylum tricornutum CCAP 1055/1) (protein)
chain: MLSVENKVVAPPMVYIAGEEMTRYACDLVVKSWLEPYFDLSQWEYFDLSCVNRDNTNDQVLRDAVTAGQRIGAIFKEPTITPSAIQKKAFGLKNSLGSPNGAMRAGWNGITISRDTIHIDGIELGYKRPVFFERHAVGGEYGAGWSKVGRGTLLTTYLPSDGRDPFVVDKRDLTDQHNVVVTYHNPYDNVEPLAHLFFQRCLDANITPYVVTKKTVFKWQEGFWAVMKDVFDEHYKSRFEEKGLLQACGGDLQHLISDAATMQLIRWTDGGFGMAAHNYDGDMLTDQIAQVHRSPGFITSNLVGKAPDGSLIKEFEASHGTVSDLWNDHLAGKETSLNPLGLVEAIVGALQHAAVLDAEKNPDDEHKVKARDQIFNFTTTLRTAMHNTFRYGQGTRDMSGPSGYTTEDFVRKVAWRLQRYLDAQYDEAPPPQLGEPSRKLRRNYDIDEEAINGLFQKYDKNGDGFIDFEEFTRMLVKMNLAPLLTKKEKEKKPDV
notes: hexamer also seen; C-terminal EF-hand domain
K0.5 (purified protein [4]): 84.9 ± 5.2 µM
Km (purified protein [5]): 1132.5 ± 23.3 µM
kcat (purified protein [5]): 180.5 ± 6.8 s⁻¹
kcat/Km (purified protein [5]): 160000 M⁻¹ s⁻¹
